Results: patent US20220204580A1 (AstraZeneca / MedImmune, published 2022)
Numbered stars: 1 amine (or outer) side, 2 acyl side, 3 side chain; on linkers, the order of the positions; unused ones are H or OH. Bridge positions count the residues as written; N and C are the ends. Square brackets hold non-standard residues; d marks the D form. Side chains are listed from the residue outwards. Ends that are not written are not given here. * marks the point of attachment. C18 diacid = O=C(O)CCCCCCCCCCCCCCCCC(=O)*; γGlu = O=C(O)[C@H](CCC(=O)[*:2])N[*:1]; Aib = CC(C)(N)C(=O)O

How the values were obtained:
[1] = molecular target: T1, human calcitonin receptor (human, UniProt P30988 25-474); assay: cell-based or functional assay
T1 sequence (looked up): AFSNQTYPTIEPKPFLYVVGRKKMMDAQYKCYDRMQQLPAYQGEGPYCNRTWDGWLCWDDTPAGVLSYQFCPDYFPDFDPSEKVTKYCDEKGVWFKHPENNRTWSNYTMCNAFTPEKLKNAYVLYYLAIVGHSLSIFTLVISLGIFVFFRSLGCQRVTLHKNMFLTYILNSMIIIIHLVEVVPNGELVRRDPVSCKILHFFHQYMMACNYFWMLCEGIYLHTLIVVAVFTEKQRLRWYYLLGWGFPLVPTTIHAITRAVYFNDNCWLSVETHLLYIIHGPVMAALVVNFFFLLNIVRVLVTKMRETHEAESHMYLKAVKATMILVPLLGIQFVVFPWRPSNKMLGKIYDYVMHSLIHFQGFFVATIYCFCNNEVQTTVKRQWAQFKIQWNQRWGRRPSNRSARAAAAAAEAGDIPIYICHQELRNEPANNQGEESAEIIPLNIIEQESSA

[2] = molecular target: T2, human amylin receptor (calcitonin receptor co-expressed with receptor activity modifying protein, RAMP3) (human, UniProt P30988 25-474; O60896 24-148); assay: cell-based or functional assay
T2 sequence (looked up) 1: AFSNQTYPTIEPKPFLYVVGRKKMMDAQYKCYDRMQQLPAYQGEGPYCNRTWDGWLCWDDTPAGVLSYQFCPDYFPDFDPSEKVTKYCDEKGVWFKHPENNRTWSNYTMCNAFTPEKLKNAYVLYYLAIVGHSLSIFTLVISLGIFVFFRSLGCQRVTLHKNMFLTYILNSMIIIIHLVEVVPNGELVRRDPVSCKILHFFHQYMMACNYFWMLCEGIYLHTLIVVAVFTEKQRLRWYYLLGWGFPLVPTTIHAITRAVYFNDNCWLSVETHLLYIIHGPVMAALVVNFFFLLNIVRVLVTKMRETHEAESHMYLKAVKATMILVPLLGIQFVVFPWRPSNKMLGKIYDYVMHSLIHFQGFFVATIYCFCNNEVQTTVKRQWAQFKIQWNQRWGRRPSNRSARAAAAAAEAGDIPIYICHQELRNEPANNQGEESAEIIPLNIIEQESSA
T2 sequence (looked up) 2: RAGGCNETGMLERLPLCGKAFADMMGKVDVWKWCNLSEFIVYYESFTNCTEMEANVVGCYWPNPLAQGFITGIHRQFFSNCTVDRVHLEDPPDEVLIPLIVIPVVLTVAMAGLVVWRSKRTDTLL

B1: Peptide 106 (SEQ ID NO: 106) (peptide)
peptide: K([γGlu-C18 diacid])KCNTATCATQRLANFLVHSSNNFGP[Aib]LPPTNVGSNTY-NH2
modifications: disulfide 3-8; N-terminus assumed
SMILES: CC(C)C[C@H](NC(=O)[C@H](CCCNC(=N)N)NC(=O)[C@H](CCC(N)=O)NC(=O)[C@@H](NC(=O)[C@H](C)NC(=O)[C@@H]1CSSC[C@H](NC(=O)[C@H](CCCCN)NC(=O)[C@@H](N)CCCCNC(=O)CC[C@H](NC(=O)CCCCCCCCCCCCCCCCC(=O)O)C(=O)O)C(=O)N[C@@H](CC(N)=O)C(=O)N[C@@H]([C@@H](C)O)C(=O)N[C@@H](C)C(=O)N[C@@H]([C@@H](C)O)C(=O)N1)[C@@H](C)O)C(=O)N[C@@H](C)C(=O)N[C@@H](CC(N)=O)C(=O)N[C@@H](Cc1ccccc1)C(=O)N[C@@H](CC(C)C)C(=O)N[C@H](C(=O)N[C@@H](Cc1c[nH]cn1)C(=O)N[C@@H](CO)C(=O)N[C@@H](CO)C(=O)N[C@@H](CC(N)=O)C(=O)N[C@@H](CC(N)=O)C(=O)N[C@@H](Cc1ccccc1)C(=O)NCC(=O)N1CCC[C@H]1C(=O)NC(C)(C)C(=O)N[C@@H](CC(C)C)C(=O)N1CCC[C@H]1C(=O)N1CCC[C@H]1C(=O)N[C@H](C(=O)N[C@@H](CC(N)=O)C(=O)N[C@H](C(=O)NCC(=O)N[C@@H](CO)C(=O)N[C@@H](CC(N)=O)C(=O)N[C@H](C(=O)N[C@@H](Cc1ccc(O)cc1)C(N)=O)[C@@H](C)O)C(C)C)[C@@H](C)O)C(C)C
With B1 the “EC50 (cAMP production)” value [1] was 3.42 nM, the “EC50 (cAMP production)” value [2] was 0.473 nM and the “Ratio (EC50 hCTR / EC50 hAMYR3)” value [2] was 7.

B2: Peptide 107 (SEQ ID NO: 107) (peptide)
peptide: K([γGlu-C18 diacid])KCNTATCATQRLANFLRHSSNNFGP[Aib]LPPTNVGSNTY-NH2
modifications: disulfide 3-8; N-terminus assumed
SMILES: CC(C)C[C@H](NC(=O)[C@H](CCCNC(=N)N)NC(=O)[C@H](CCC(N)=O)NC(=O)[C@@H](NC(=O)[C@H](C)NC(=O)[C@@H]1CSSC[C@H](NC(=O)[C@H](CCCCN)NC(=O)[C@@H](N)CCCCNC(=O)CC[C@H](NC(=O)CCCCCCCCCCCCCCCCC(=O)O)C(=O)O)C(=O)N[C@@H](CC(N)=O)C(=O)N[C@@H]([C@@H](C)O)C(=O)N[C@@H](C)C(=O)N[C@@H]([C@@H](C)O)C(=O)N1)[C@@H](C)O)C(=O)N[C@@H](C)C(=O)N[C@@H](CC(N)=O)C(=O)N[C@@H](Cc1ccccc1)C(=O)N[C@@H](CC(C)C)C(=O)N[C@@H](CCCNC(=N)N)C(=O)N[C@@H](Cc1c[nH]cn1)C(=O)N[C@@H](CO)C(=O)N[C@@H](CO)C(=O)N[C@@H](CC(N)=O)C(=O)N[C@@H](CC(N)=O)C(=O)N[C@@H](Cc1ccccc1)C(=O)NCC(=O)N1CCC[C@H]1C(=O)NC(C)(C)C(=O)N[C@@H](CC(C)C)C(=O)N1CCC[C@H]1C(=O)N1CCC[C@H]1C(=O)N[C@H](C(=O)N[C@@H](CC(N)=O)C(=O)N[C@H](C(=O)NCC(=O)N[C@@H](CO)C(=O)N[C@@H](CC(N)=O)C(=O)N[C@H](C(=O)N[C@@H](Cc1ccc(O)cc1)C(N)=O)[C@@H](C)O)C(C)C)[C@@H](C)O
B2 was tested, and the “EC50 (cAMP production)” value [1] was 26.3 nM, the “EC50 (cAMP production)” value [2] was 1.07 nM and the “Ratio (EC50 hCTR / EC50 hAMYR3)” value [2] was 25.
